Laboratory results from the nanobody polyreactivity screen of Harvey et al. (2022).

experiment: yeast display, Sf9 membrane polyspecificity reagent, FACS + sequencing; frameworks hold sequencing errors
Procedure, shortened: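 Galactose induction of a Saccharomyces cerevisiae BJ5465 synthetic nanobody display library ran 36–48 hours. The cells were then stained for 1 hour at 4 °C with 10% biotinylated, detergent-solubilized Sf9 membrane reagent, pulled down on streptavidin microbeads and FACS-sorted into low and high (top ~1%) gates on expression and reagent-binding fluorescence. Labels for polyreactivity follow the gate of origin.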

Sequence	polyreactivity (PSR sort gate)
QVQLVESGGGLVQAGGSLRLSCAASGFTFYSYAMGWYRQAPGKEREFVAAGSTYYADSVKGRFTISRDNAKNTVYLQMNSLKPEDTAVYYCAADPWIYVQSYGYWGQGTQVTVSS	low polyreactivity
QVQLVESGGGLVQAGGSLRLSCAASGFTFYSYAMGWYRQAPGKERELVAAISWSGSRTYYADSVKGRFTISRDNAKNTVYLQMNSLKPEDTAVYYCTKYLPRHRYDFDYWGQGTQVTVSS	high polyreactivity
QVQLVESGGGLVQAGGSLRLSCAASGFTFYSYAMGWYRQAPGKERELVATISRNGGTTRYADSVKGRFTISRDNAKNTVYLQMNSLKPEDTAVYYCNAVYYAYSRHSYAMDYWGQGTQVTVSS	high polyreactivity
QVQLVESGGGLVQAGGSLRLSCAASGFTFYSYAMGWYRQAPGKERELVATITASGGSTYYADSVKGRFTISRDNAKNSVYLQMISLKPEDTAVYYCAAYHPHGFDYYRYYYWGQGTQVTVSS	high polyreactivity
QVQLVESGGGLVQAGGSLRLSCAASGFTFYSYAMGWYRQAPGTERELVAAISGGGGSTYYADSVKGRFTISRDNAKNTVYLQMNSLKPEDTAVYYCAKRPAYRGYGLGYYWGQGTQVTVSS	high polyreactivity
QVQLVESGGGLVQAGGSLRLSCAASGFTFYSYTMGWYRQAPGKERELVAAITRGGRTYYADSVKGRFTISRDNAKNTVYLQMNSLKPEDTAVYYCAARVGSWTQSFGYDYWGQGTQVTVSS	high polyreactivity
QVQLVESGGGLVQAGGSLRLSCAASGFTFYTNAMGWYRQAPGKERELVADITTSGGDTYYADSVKGRFTISRDNAKNTVYLQMNSLTPEDTAVYYCGEFWTYWGYGQYDYWGQCTQVTVSS	low polyreactivity
QVQLVESGGGLVQAGGSLRLSCAASGFTFYTYAMGWYRQAPGKERELVADISSGGSTNYADPVKGRFTISRDNAKNTVDLQMNCLKPEDTAVYYCSADYYFLDWYDYWGQGTQVTVSS	low polyreactivity
QVQLVESGGGLVQAGGSLRLSCAASGFTFYTYAMGWYRQEPGKEREMVATISGSGGDTNYADSVKGRFTISRDNAKNTGYLQMDSLKPEDTAVYYCAAETQSVWSGFYYWGQGTQVTVSS	low polyreactivity
QVQLVESGGGLVQAGGSLRLSCAASGFTFYTYAMGWYRQPPGKERELVAAISRRGGSTYYADSVKGRFTISRDNAKNTVYLQMNSLKPEDTAVYYFNAVADSYSGFDGYYYWGQGTQVTVSS	high polyreactivity
QVQLVESGGGLVQAGGSLRLSCAASGFTFYTYVMGWYIQAPGKERELVAAITSGVYTNYADSVKGRFTISRDNAKNTVDLQMKSLKPEDTAVYYCNKDVRQAYRWYDSWGQDTQVTVSS	low polyreactivity
QVQLVESGGGLVQAGGSLRLSCAASGFTFYTYVMGWYRQAPGKERELVAAITSGVSTNYADSVKGRFTISRDNAKNTVYLQMNSLKPEDTAVYYCAAGSDFQYGHDYWGQGTQVTVSS	low polyreactivity
QVQLVESGGGLVQAGGSLRLSCAASGFTFYVNAMGWYRQAPGKEREFVAAISASGASTRYADSVKGRFTISRDNAKNTVYLQMNSLKPEDTAVYYCAADAPAWILEAYGYWGQGTQVTVSS	low polyreactivity
QVQLVESGGGLVQAGGSLRLSCAASGFTFYVYAIGWYRKAPRKEREFVAAISKSGGRTYYADSVKGRFTISRDTAKNTVYLQMNSLKPEDTAVYYCGRYNRYQIIYPRFDYWGHGTQVTVSS	high polyreactivity
QVQLVESGGGLVQAGGSLRLSCAASGFTFYVYAMGWYRQARGQERELVATISRGGSTNYADSVKGRFTISRDNAKNTVYLQMNSLKPEDTAVYYCAARKYHYFPSRYGYWGQGTQVTVSS	high polyreactivity
QVQLVESGGGLVQAGGSLRLSCAASGFTFYWNAMGWSRQAPGKERELVAAINGGDSTNYADSVKGRFTISRDNAKNTVYLQMNSLKPEDTAVYYCAAEPSLEAWTAFGSYYWGQGTQVTVSS	low polyreactivity
QVQLVESGGGLVQAGGSLRLSCAASGFTFYWYAMGWYRQAPGKERQLVAAISKTGGSTYYADSVKGRFTISRDNAQKTVYLQMTSLKPEDTAVYYCNADKVATWRTHHDYWGQGTQVTVSS	low polyreactivity
QVQLVESGGGLVQAGGSLRLSCAASGFTFYYNAMGWYRQAPGKERELVAIRFRGGNTYYADSVKGRFTISRDNAKNTVYLQMNSLKPEDTAVYYCNADDRGSTYVDFDYWGQGTQVTVSS	low polyreactivity
QVQLVESGGGLVQAGGSLRLSCAASGFTFYYNAMGWYRQAPGKERELVAIRFRGGNTYYADSVKGRFTISRDNAKNTVYLQMNSLKPEDTAVYYCNADDRGSTYVEFDYWGQGTQVTVSS	low polyreactivity
QVQLVESGGGLVQAGGSLRLSCAASGFTFYYYAMGWSRQAPGKERELVAAISTRDGNTYYADSVKGRFTISRDNAKNTVYLQRNSLKPEDTAVYYCAADYFRYYPYDYWGQGTQVTVSS	low polyreactivity
QVQLVESGGGLVQAGGSLRLSCAASGFTFYYYAMGWYRQAPGKERELVAAIDTGGSTNYADSVKGRFTISRDNAKNTVYLQMNSLKPEDTAVYYCNADTPDHYGHYDYWGQGTQVTVSS	low polyreactivity
QVQLVESGGGLVQAGGSLRLSCAASGFTFYYYAMGWYRQAPGKERELVAAISSSGVRTYYADSVKGRFTISRDNAKNTVYLQMKSLKPEDTAVYYCATVGRGFPSVELDYWGQGTQVTVSS	high polyreactivity
QVQLVESGGGLVQAGGSLRLSCAASGFTFYYYAMGWYRQAPRKERQLVAAFSWSGGSTYYADSVKGRFTISRDYAKNTVYLQMNRLKPVDTAVYYCNAYPGYRSRSDYGYWGQGTQVTVSS	high polyreactivity
QVQLVESGGGLVQAGGSLRLSCAASGFTFYYYTMGWYRQAPGKEMELVADISSGDRTYYADSVKGRFTISRDNAKNTVYLQMNSLKPEDTAVYYCAAPAKYYTRFGHYILNQDYDSWGQGTQVTVSS	low polyreactivity
QVQLVESGGGLVQAGGSLRLSCAASGFTIADYAMGWYRQAPGKERELVAAITYSGGSTYYADSVKGRFTISRDNAKNTVYLQMNSLKPEDTAVYYWNADYASQSGYDYWGQGTQVTVSS	low polyreactivity
QVQLVESGGGLVQAGGSLRLSCAASGFTIAGYAMGWYRQAPWKERELVAAISRGGITYYADSVKGRFTISRDNAKNTVYLQMNSLKPEDTAVYYCAAGKRWSTKYGYWGQGTQVTVSS	high polyreactivity
QVQLVESGGGLVQAGGSLRLSCAASGFTIASNDMGWYRQAPGKERELVAAITKGGGRTYYADSVKGRFTISRDNAKNTVYLQMNSLKPEDTAVYYCAARQLIKYDYWGQGTQVTVSS	low polyreactivity
QVQLVESGGGLVQAGGSLRLSCAASGFTIDTYAMGWYRQAPGKERELVAGISWSGGSTYYADSVKGRFTISRDNAKNTVYLQMNSLKPEDTAVYYCARTARRRYQPYEYWGQGTQVTVSS	low polyreactivity
QVQLVESGGGLVQAGGSLRLSCAASGFTIGYYAMGWYRQAPGKERELDAAISSGGGSTKYADSVKGRFTISRDNAKNTVYLQMNSLKPVDTAVYYFAKSRLVRGRSSYDYWGQGSQVTVSS	high polyreactivity
QVQLVESGGGLVQAGGSLRLSCAASGFTIGYYAMGWYRQAPGKERELVAAISWSGGRTYYAYSVKGRFTISRDNAKNTVYLQMNSLKPEDTAVYYCAADGQQTYSGYDYWGQGTQVTVSS	high polyreactivity
